The domain aggregation screens of Martell et al. (2025)

Assay: soluble fraction after stress (log2 fold change); higher = more stays soluble; pooled small domains, quantitative proteomics
Settings: stress: pH 4
How it was run: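 After pH 4 stress, pooled custom libraries of small protein domains were quantified with high-throughput quantitative proteomics. Aggregation propensity is taken from the fold change in each domain's soluble amount following the acid stress. The scale is log2, where higher values mean more stayed soluble.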
With “HMPTPLTPREHEIANLIAQGLSNREIADELVISPATAARHVANILAKLGFSSRTQVASWATRHD” the “soluble fraction (log2)” value was -0.237.
With “HMTNIQFINLKMTDNHPWIHQYIKDIILPPQTRIVMIKRNDIKTIPKGERRIEKDDELILSAFESQT” the “soluble fraction (log2)” value was -1.27.
With “HMDLDLNIDNYNFDDLLNLFGLKMKFSEDDLKKAKRSVLMTHPDKSGLDKQYFMFFTKAYKMLSQIYYFR” the “soluble fraction (log2)” value was -0.779.
With “HMYRIGELAKLADVTPDTIRYYEKQQMMDHDVRTEGGFRLYSDNDLQRLKFIRYARQLGFTLEAIRELLSI” the “soluble fraction (log2)” value was -0.51.
With “HMDLDPNKPAIPIAYPRVLLNIMAEKGFSRTEVLAGSGLADSVFDKPDHRITPAQFLFILMNSFYLS” the “soluble fraction (log2)” value was -0.631.
With “HMDVKPWERQEGESAKAFEAFTIYAGLGADRSLRAVAQQLGKSKTLMDRWSSTYSWVARAAEYDADLQRK” the “soluble fraction (log2)” value was ≥ 0.43.
For “HMKTYEILFDILSRESDYISGEKLAQELGISRTSIWKAIQHLEKEGVHIESVKNKGYKLLSGDLLIAEKI”, the “soluble fraction (log2)” value was -0.343.
For “HMGVAAEDPDEAEKGAHSLKSSAANVGAEVVRGLAGEIESAASSGDVEAVRTILPGLEDAYSQAITDLET”, the “soluble fraction (log2)” value was 0.133.
In the case of “HMTKTEFLNLLEQRLFVLNDNERADLLSEYKQHIEMKIQSGLSEEEAIADFGDPEELIKELLEAY”, the “soluble fraction (log2)” value is reported as -1.13.
With “HMKITTKNYFKAIAEVGVENLPAALKKSHDLIEERTSKGADWSVYEHDAEVRRVFDLTFEKLFEFIDQ” the “soluble fraction (log2)” value was -1.23.
In the case of “HMNADAIVGRTGVVTEAIAADGFGRVQIDGDSWKAKASGNNGIDVGAKVRVLRIDSIILTVEK”, the “soluble fraction (log2)” value is reported as 0.059.
With “HMKSERHALILSLIEKKNVETQEDLAELLKERGVAVTQATVSRDIKELRLIKVLSETGGYKYATVDKAE” the “soluble fraction (log2)” value was 0.109.
In the case of “HMASAKTVAQSGTYKFAKTTAIKSSASDAASTVGTYYKGNTVNYNAKVTTNGQTWLRYTSYSGAQYYVKVS”, the “soluble fraction (log2)” value is reported as 0.218.
With “HMTVLSKEEFVAIEQRLLQLLGTAPVDNKILLQQLSGIKKEKAWKVLSFLQAENKIGMDATGRVYL” the “soluble fraction (log2)” value was -0.697.
With “HMPSQEQSDKNAAMAFLPVIVKNALNGKGLKISDDWKAAVNTALAQYPLVNKFFNADSPEVTELVMGL” the “soluble fraction (log2)” value was 0.0187.
For “HMDIESREAWVDASGMGVRLDRWLTQLAPEFSRNHLQSLIERGAVRVDGQPALVASRKLRIGQQVAVSLIP”, the “soluble fraction (log2)” value was -0.0568.
For “HMHGESISVPDLRGQKMERMPAFLADKHLQFKVIDSLFDLEKNPGTVLEQDPAPNSKVKEGRTIYLTVNAQ”, the “soluble fraction (log2)” value was -0.118.
For “HMVNHEERKRLIAEATWRTISHVGIEQASVRTIAKEAGLSLGALRYYFTTQEELLRFSMQLVQERV”, the “soluble fraction (log2)” value was 0.0598.
With “HMKPLRPVHLEIQTHRLSPVGILRSSFRQAGKVMHSNHGRITGLNLEQLKLIQAAFAGEALPK” the “soluble fraction (log2)” value was 0.0473.
For “HMQVTPQVLRLLDVLGDKELSLRQIAEALGLSDRKNIMRNYVVPALDSGRVVRTVPNKPNSRFQKYRK”, the “soluble fraction (log2)” value was 0.0808.
With “HMTKTEFLEALRRALNGNMAAASVEDNLKFYENYFYSEEAKGRSEAAVLSELGDPRILARTLIDAAER” the “soluble fraction (log2)” value was -0.816.
For “HMTIYPFNPNYLKDYQAYRVGLSLKEIDALLDFRSSGQWINSAEDFQRITGVSDSVLEQLIPYFKFS”, the “soluble fraction (log2)” value was -1.73.
For “HMGTHDAGTRFFDNLDSLLQNRDATRADVLAVYLLAVSLGFRGKHRSVSSAPQIAHYRNQAYVTLFQ”, the “soluble fraction (log2)” value was -0.386.
With “HMKLNEQSMQVIDRIVDRHRGRPGPVKLMLHDVQKELGYIPFEAMEKIAAASGVSADEVYGVVTFYTQFTT” the “soluble fraction (log2)” value was -1.27.
With “HMSLYGGYEIDIIKEEVVDAGIKLLRRRVIVADQRGISVYEGKPTFASDDQVLIKEGQYQIDKLG” the “soluble fraction (log2)” value was -1.46.
For “HMNKDEFLNELKSYLSILEDEEQADILEEYTQHIDMKISTGLSEAEAIRDFGNVSELAAQILEAY”, the “soluble fraction (log2)” value was -0.343.
In the case of “HMLRQVSDSNALETAVKKVLDANPEEVERYKSGNKKLISFFVGQTMKATKGAGNPKEINSILAKLL”, the “soluble fraction (log2)” value is reported as 0.201.
With “HMETYPINVETTGTNVLLRTGPSTSSNIIKTITDKGTVFLSIERGINSDWQKVVTPDGTIGYMSGKY” the “soluble fraction (log2)” value was -0.314.
In the case of “HMELPVAVPHTELSPEALRGVVESFVLREGTDYGERDVPFEAKVAQVIRQLERGEARIMFDPVTQSVQIVT”, the “soluble fraction (log2)” value is reported as -0.411.
With HMQEDKVRKLTEMGFAEDQAREALRKHDWDETMALNSL the “soluble fraction (log2)” value was -0.244.
With “HMQKPIKPVKMHTVGPKENLSSIGRMYEVNGRVLANYNNIDYDKGLTIGQVLKIPPKGTTLEQVT” the “soluble fraction (log2)” value was 0.0149.
For “HMTGQHFDLEDTDGNLVYEIDSTVPLKTFYIYDAMHTEIFRMTKELLHALPTYRFYLYGEPYGVLKKQ”, the “soluble fraction (log2)” value was -0.52.
In the case of “HMDLVESYDLKIIYTSELINLLIDSSRLEEALNLFKDLKDEIDDVENLGFSAKNNLDYMESKLLHLG”, the “soluble fraction (log2)” value is reported as -1.6.
With “HMVVKLTQEQDRFIKTFNDKSLAFYYISSWGWGSFLRNGIGGVYEGDKTPFTLDEKEKMLNAIINGYEVI” the “soluble fraction (log2)” value was -1.36.
In the case of “HMQERTVVKGVVVQVSRDEAYVDIGYKQEIPVSKRDLAVPAPDDARDVVKVGDEIDVYIKSLGGDNGG”, the “soluble fraction (log2)” value is reported as -0.0346.
For “HMDYINALTTAGITDAKVIVTAPFDVSGTAALTGIYKAYEDITGSSLNEIAKAVGVEELITTGNLA”, the “soluble fraction (log2)” value was 0.2.
In the case of “HMPLDISDDSKAVLKLLKNDSNELNTVKSASGLSNKKWDKTIKELTKNKIVSVSKTEDGLYIHLI”, the “soluble fraction (log2)” value is reported as 0.336.
For “HMAPGSKAEIPEDLMKVINKDPKMKAFVATLNKANIMAISFRLSTAKKPETRERRFNLILETLKRGEKF”, the “soluble fraction (log2)” value was -0.644.
